For test [1], the target named is T1, Human CD39 on CHOK1-huCD39-10B6 cells overexpressing CD39 (human, UniProt P49961 1-510).
T1 sequence (looked up): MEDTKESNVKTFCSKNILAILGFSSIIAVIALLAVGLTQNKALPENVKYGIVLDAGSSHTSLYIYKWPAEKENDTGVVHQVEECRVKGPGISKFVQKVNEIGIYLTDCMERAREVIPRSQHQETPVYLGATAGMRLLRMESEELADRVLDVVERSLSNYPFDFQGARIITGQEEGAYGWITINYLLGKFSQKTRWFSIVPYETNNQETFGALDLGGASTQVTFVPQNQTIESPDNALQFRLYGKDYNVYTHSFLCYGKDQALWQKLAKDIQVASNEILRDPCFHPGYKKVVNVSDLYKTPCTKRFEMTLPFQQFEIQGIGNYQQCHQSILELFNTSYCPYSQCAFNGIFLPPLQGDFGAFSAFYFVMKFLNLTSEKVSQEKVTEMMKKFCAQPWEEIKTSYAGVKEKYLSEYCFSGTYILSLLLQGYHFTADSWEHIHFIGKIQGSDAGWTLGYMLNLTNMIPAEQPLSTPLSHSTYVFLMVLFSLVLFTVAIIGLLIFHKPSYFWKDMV
Description: cell-based or functional assay.

A further test concerns the target T2, Human CD39 antigen (human, UniProt P49961 38-478).
T2 construct: Antigen used as analyte in SPR; also called ENTPD1
T2 sequence (looked up): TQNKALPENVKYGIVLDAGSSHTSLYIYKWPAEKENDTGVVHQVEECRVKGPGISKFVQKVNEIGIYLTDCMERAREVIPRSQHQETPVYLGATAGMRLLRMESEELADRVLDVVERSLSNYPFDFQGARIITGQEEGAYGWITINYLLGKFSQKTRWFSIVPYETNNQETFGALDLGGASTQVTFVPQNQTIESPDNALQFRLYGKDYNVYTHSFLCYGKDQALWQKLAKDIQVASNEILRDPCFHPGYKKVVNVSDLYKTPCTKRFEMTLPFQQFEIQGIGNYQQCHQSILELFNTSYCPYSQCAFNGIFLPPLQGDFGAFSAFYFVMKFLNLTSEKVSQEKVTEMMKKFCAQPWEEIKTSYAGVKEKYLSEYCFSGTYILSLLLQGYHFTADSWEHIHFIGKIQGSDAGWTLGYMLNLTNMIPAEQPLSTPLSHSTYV
Description: SPR (Biacore 8K), species cross test, antibody captured on anti-human capture CM5 chip, antigen as analyte, 1:1 model. The method, then:
(§1) The experimental method is as follows:
(§2) An Anti-Human Capture-CM5 chip (GE, #BR-1005-30) was prepared using coupling methods of a Human Antibody Capture Kit (GE, #BR-1008-39) and an amino coupling kit (GE, BR-1000-50). The chip was equilibrated at room temperature for about 20-30 min and loaded into a Biacore 8K instrument. The antigen and antibody were diluted to an experimental working concentration using an equilibration buffer. The antigen was diluted with an equilibrium buffer to 50 nM, and then diluted three-fold for seven concentration gradients, and two zero concentrations (i.e., the equilibrium buffer) and one repeat concentration (typically the lowest concentration repeat) were set. Experimental analysis was performed on 10 antigen concentrations (2 zero concentrations, 7 gradient concentrations, and 1 repeated concentration) in a cyclic manner according to an order of antibody, antigen, and regeneration. The antigen injection flow rate was 30 μL/min, the binding time was 120 s, and the dissociation time was 600 s. Following the analysis, the data was analyzed using the corresponding analysis program to confirm that there was no obvious reference binding. Using Kinetics and a 1:1 binding model, the data was fit to obtain the kinetic related parameters Ka, Kd, and KD values of the bispecific antibodies.

In another test the target is T3, Cynomolgus CD73 antigen (cynomolgus, UniProt A0A2K5V5U7 27-547).
T3 construct: Antigen used as analyte in SPR
T3 sequence: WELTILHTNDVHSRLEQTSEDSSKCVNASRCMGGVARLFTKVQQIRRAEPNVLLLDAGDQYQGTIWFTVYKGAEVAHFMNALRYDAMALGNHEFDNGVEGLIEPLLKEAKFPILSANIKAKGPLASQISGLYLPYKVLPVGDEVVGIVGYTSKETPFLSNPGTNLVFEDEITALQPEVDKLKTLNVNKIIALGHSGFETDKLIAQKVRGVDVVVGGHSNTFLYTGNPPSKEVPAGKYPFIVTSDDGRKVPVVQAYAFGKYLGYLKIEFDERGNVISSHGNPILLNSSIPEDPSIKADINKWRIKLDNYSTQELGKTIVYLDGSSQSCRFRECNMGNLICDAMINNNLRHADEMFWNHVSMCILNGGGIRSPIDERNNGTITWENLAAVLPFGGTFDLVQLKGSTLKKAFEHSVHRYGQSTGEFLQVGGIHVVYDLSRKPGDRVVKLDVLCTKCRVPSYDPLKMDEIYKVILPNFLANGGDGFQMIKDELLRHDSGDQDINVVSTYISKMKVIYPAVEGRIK
Described as above. As for the experimental part: as §1, §2

Test [2] concerns the target soluble recombinant protein CD73. In words: cell-based or functional assay.
A further test has as its target T4, Mouse CD73 antigen (mouse, UniProt Q61503 29-549, limits assumed).
T4 construct: Antigen used as analyte in SPR
T4 sequence (looked up): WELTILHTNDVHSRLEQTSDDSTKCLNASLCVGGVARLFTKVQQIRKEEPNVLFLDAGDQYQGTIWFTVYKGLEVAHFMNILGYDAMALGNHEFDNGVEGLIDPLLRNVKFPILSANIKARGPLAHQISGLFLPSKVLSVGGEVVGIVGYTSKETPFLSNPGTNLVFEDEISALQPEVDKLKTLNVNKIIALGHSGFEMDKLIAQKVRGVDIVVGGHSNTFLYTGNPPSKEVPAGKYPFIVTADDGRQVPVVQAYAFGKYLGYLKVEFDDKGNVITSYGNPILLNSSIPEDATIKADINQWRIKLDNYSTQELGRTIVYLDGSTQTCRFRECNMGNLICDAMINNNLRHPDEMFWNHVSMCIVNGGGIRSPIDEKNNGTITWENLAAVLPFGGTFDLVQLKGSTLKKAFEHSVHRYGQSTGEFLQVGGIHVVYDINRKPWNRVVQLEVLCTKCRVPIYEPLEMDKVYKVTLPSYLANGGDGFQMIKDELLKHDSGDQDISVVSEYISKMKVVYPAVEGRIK
Description: SPR (Biacore 8K), antibody captured on anti-human capture CM5 chip, antigen as analyte. The method, then: as §1, §2

soluble recombinant protein CD73, sequence (P21589 whole entry): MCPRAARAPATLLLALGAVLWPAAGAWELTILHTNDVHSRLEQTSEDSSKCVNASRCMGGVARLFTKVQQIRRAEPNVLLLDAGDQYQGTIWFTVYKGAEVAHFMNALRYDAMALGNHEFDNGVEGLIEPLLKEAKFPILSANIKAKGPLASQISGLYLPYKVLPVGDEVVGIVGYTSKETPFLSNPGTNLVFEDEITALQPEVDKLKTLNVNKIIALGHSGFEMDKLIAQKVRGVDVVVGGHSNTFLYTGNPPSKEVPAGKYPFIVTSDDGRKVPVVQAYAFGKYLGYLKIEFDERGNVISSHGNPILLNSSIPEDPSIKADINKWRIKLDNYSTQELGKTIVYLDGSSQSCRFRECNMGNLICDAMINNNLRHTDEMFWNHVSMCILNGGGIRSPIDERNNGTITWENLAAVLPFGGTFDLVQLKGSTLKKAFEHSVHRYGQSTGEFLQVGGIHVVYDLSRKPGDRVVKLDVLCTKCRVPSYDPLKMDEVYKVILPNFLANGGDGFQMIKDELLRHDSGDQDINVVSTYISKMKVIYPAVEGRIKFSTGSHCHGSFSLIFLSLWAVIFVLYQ

B1: CD39/CD73 bispecific antibody 700038 (CD39-VHH-CD73-IgG) (bispecific antibody)
heavy: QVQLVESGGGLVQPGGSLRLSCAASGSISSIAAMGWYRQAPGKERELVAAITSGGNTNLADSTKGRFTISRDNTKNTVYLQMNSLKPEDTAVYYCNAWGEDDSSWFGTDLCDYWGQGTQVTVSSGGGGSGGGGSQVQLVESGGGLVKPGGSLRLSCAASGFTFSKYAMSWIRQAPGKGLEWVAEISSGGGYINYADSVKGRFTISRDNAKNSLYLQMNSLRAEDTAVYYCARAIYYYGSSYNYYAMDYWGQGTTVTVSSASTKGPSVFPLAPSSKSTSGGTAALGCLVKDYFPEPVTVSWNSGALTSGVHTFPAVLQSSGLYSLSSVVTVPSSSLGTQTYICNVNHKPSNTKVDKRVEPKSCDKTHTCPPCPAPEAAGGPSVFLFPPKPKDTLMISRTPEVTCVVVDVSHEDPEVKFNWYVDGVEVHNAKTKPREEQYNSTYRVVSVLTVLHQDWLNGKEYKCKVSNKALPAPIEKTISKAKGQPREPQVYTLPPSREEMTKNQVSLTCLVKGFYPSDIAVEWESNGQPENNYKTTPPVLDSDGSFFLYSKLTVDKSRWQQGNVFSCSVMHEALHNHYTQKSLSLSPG
light: DIQMTQSPSSLSASVGDRVTITCRASQDVGTAEAWYQQKPGKAPKLLIYWASTRHTGVPSRFSGSGSGTDFTLTISSLQPEDFATYYCQQYSSYPLTFGQGTKLEIKRTVAAPSVFIFPPSDEQLKSGTASVVCLLNNFYPREAKVQWKVDNALQSGNSQESVTEQDSKDSTYSLSSTLTLSKADYEKHKVYACEVTHQGLSSPVTKSFNRGEC
On to B1, for which the “EC50 (µg/mL), inhibition of CD39 ATPase activity on CHOK1-huCD39-10B6 cells (CellTiter Glo)” value in test [1] was found to be 0.187 µg/mL. In the test with Human CD39 antigen, the Kd came out at 0.0918 nM, the dissociation rate constant (koff) stood at 9.54e-05 s⁻¹ and the kon amounted to 1.04e+06 M⁻¹ s⁻¹. For the same molecule, in the test with Cynomolgus CD73 antigen, the Kd turned out to be 0.326 nM, the off-rate (koff) amounted to 0.000148 s⁻¹ and the association rate constant (kon) was 456000 M⁻¹ s⁻¹. Further, in test [2], the “EC50 (µg/mL), inhibition of enzyme activity of soluble CD73 protein (CellTiter Glo)” value is 1.85 µg/mL.

B2: CD39/CD73 bispecific antibody 700035 (CD39-VHH-CD73-IgG) (bispecific antibody)
heavy: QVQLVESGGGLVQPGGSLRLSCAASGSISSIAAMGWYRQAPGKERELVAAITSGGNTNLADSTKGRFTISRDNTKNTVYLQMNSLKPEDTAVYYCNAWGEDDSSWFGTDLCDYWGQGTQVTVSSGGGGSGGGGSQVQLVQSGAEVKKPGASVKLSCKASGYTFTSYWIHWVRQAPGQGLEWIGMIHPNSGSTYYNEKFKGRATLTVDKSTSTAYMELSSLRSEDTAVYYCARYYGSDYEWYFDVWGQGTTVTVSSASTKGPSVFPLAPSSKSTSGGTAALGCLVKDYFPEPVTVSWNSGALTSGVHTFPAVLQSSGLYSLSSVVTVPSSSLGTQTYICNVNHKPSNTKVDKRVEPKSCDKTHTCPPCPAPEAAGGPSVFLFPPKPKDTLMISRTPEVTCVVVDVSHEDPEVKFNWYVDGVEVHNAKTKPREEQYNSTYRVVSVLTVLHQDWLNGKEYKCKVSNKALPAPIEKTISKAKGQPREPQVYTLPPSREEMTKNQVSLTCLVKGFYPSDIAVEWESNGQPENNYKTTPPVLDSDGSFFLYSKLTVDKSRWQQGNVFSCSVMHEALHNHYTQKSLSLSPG
light: DIQMTQSPSSMSASVGDRVTITCKASQNVRTAVVWYQQKPGKAPKALIYLASNRHTGVPDRFSGSGSGTDFTLTISSLQPEDFATYFCLQHWNYPYTFGQGTKLEIKRTVAAPSVFIFPPSDEQLKSGTASVVCLLNNFYPREAKVQWKVDNALQSGNSQESVTEQDSKDSTYSLSSTLTLSKADYEKHKVYACEVTHQGLSSPVTKSFNRGEC
In the case of B2, the “EC50 (µg/mL), inhibition of CD39 ATPase activity on CHOK1-huCD39-10B6 cells (CellTiter Glo)” value in test [1] amounted to 0.208 µg/mL. In the test with Human CD39 antigen, this molecule returned an equilibrium dissociation constant (Kd) of 0.0708 nM, a koff of 9.28e-05 s⁻¹ and a kon of 1.31e+06 M⁻¹ s⁻¹. In addition, in the test with Cynomolgus CD73 antigen, the Kd amounted to 0.409 nM, the koff stood at 0.000342 s⁻¹ and the kon came out at 836000 M⁻¹ s⁻¹. Moreover, the binding result with Mouse CD73 antigen is given as “no binding (tested: 50 nM (highest antigen concentration))”.

The values are drawn from patent US20250361314A1 (SHANGHAI HUAOTA BIOPHARMACEUTICAL, published 2025).
